# *1 amine or outer side, *2 acyl side, *3 side chain or, on linkers, in order; H or OH if unused. [ ]: non-standard residue; d: D form. 3AzaPhe4AcPip = (S)-3-(6-(4-acetylpiperazin-1-yl)pyridin-3-yl)-2-aminopropanoic acid, CC(=O)N1CCN(c2ccc(C[C@H](N[*:1])C(=O)[*:2])cn2)CC1; Trp(4-Cl)(βS-Me) = C[C@@H](c1c[nH]c2cccc(Cl)c12)[C@H](N)C(=O)O; Pro(trans-4-NH2) = O=C([C@@H]1C[C@@H](N[*:3])CN1[*:1])[*:2]; Bip(4'-COOH) = N[C@@H](Cc1ccc(-c2ccc(C(=O)O)cc2)cc1)C(=O)O; 1Nal(3S-Me) = C[C@@H](c1cccc2ccccc12)[C@H](N)C(=O)O; Ala(pyrimidin-5-yl) = N[C@@H](Cc1cncnc1)C(=O)O; Phe(4-COOH) = N[C@@H](Cc1ccc(C(=O)O)cc1)C(=O)O; Trp(7-aza) = N[C@@H](Cc1c[nH]c2ncccc12)C(=O)O; h3Pal(5-CN) = N#Cc1cncc(CC[C@H](N)C(=O)O)c1; 1Nal = N[C@@H](Cc1cccc2ccccc12)C(=O)O; hTyr = N[C@@H](CCc1ccc(O)cc1)C(=O)O; dDab = NCC[C@@H](N)C(=O)O; dNMeA = CN[C@H](C)C(=O)O; Dap = NC[C@H](N)C(=O)O; Aib = CC(C)(N)C(=O)O
# Biological target: Recombinant human IL-1β (BioLegend 579404) (human, UniProt P01584 117-269)
# Assay: cell-based or functional assay
row,MRC5 IC50 [nM],Binder
1,0.0185,cyclo([Bip(4'-COOH)]W[Phe(4-COOH)]G[Pro(trans-4-NH2)][1Nal(3S-Me)]D[dNMeA]G[Bip(4'-COOH)]W[Dap][dA][h3Pal(5-CN)]) (SMILES C[C@@H]1C(=O)NCC(=O)N[C@@H](Cc2ccc(-c3ccc(C(=O)O)cc3)cc2)C(=O)N[C@@H](Cc2c[nH]c3ccccc23)C(=O)N[C@@H](CN)C(=O)N[C@H](C)C(=O)N[C@@H](CCc2cncc(C#N)c2)C(=O)N[C@@H](Cc2ccc(-c3ccc(C(=O)O)cc3)cc2)C(=O)N[C@@H](Cc2c[nH]c3ccccc23)C(=O)N[C@@H](Cc2ccc(C(=O)O)cc2)C(=O)NCC(=O)N2C[C@H](N)C[C@H]2C(=O)N[C@@H]([C@@H](C)c2cccc3ccccc23)C(=O)N[C@@H](CC(=O)O)C(=O)N1C) [SEQ ID NO: 30]
2,0.544,cyclo([Bip(4'-COOH)]W[Phe(4-COOH)]G[Pro(trans-4-NH2)][Trp(4-Cl)(βS-Me)]A[dNMeA]G[Bip(4'-COOH)][1Nal]L[Aib]G) (SMILES CC(C)C[C@@H]1NC(=O)[C@H](Cc2cccc3ccccc23)NC(=O)[C@H](Cc2ccc(-c3ccc(C(=O)O)cc3)cc2)NC(=O)CNC(=O)[C@@H](C)N(C)C(=O)[C@H](C)NC(=O)[C@H]([C@@H](C)c2c[nH]c3cccc(Cl)c23)NC(=O)[C@@H]2C[C@@H](N)CN2C(=O)CNC(=O)[C@H](Cc2ccc(C(=O)O)cc2)NC(=O)[C@H](Cc2c[nH]c3ccccc23)NC(=O)[C@H](Cc2ccc(-c3ccc(C(=O)O)cc3)cc2)NC(=O)CNC(=O)C(C)(C)NC1=O) [SEQ ID NO: 33]
3,0.017,cyclo([Bip(4'-COOH)]W[Phe(4-COOH)]G[Pro(trans-4-NH2)][1Nal(3S-Me)]D[dNMeA]G[Bip(4'-COOH)][Ala(pyrimidin-5-yl)][Dap][dA][h3Pal(5-CN)]) (SMILES C[C@@H]1C(=O)NCC(=O)N[C@@H](Cc2ccc(-c3ccc(C(=O)O)cc3)cc2)C(=O)N[C@@H](Cc2cncnc2)C(=O)N[C@@H](CN)C(=O)N[C@H](C)C(=O)N[C@@H](CCc2cncc(C#N)c2)C(=O)N[C@@H](Cc2ccc(-c3ccc(C(=O)O)cc3)cc2)C(=O)N[C@@H](Cc2c[nH]c3ccccc23)C(=O)N[C@@H](Cc2ccc(C(=O)O)cc2)C(=O)NCC(=O)N2C[C@H](N)C[C@H]2C(=O)N[C@@H]([C@@H](C)c2cccc3ccccc23)C(=O)N[C@@H](CC(=O)O)C(=O)N1C) [SEQ ID NO: 27]
4,0.0688,cyclo([Bip(4'-COOH)]W[Phe(4-COOH)]G[Pro(trans-4-NH2)][1Nal(3S-Me)]D[dNMeA]G[Bip(4'-COOH)]KL[dS][hTyr]) (SMILES CC(C)C[C@@H]1NC(=O)[C@H](CCCCN)NC(=O)[C@H](Cc2ccc(-c3ccc(C(=O)O)cc3)cc2)NC(=O)CNC(=O)[C@@H](C)N(C)C(=O)[C@H](CC(=O)O)NC(=O)[C@H]([C@@H](C)c2cccc3ccccc23)NC(=O)[C@@H]2C[C@@H](N)CN2C(=O)CNC(=O)[C@H](Cc2ccc(C(=O)O)cc2)NC(=O)[C@H](Cc2c[nH]c3ccccc23)NC(=O)[C@H](Cc2ccc(-c3ccc(C(=O)O)cc3)cc2)NC(=O)[C@H](CCc2ccc(O)cc2)NC(=O)[C@@H](CO)NC1=O) [SEQ ID NO: 26]
5,0.0393,cyclo([Bip(4'-COOH)]W[Phe(4-COOH)]G[Pro(trans-4-NH2)][1Nal(3S-Me)]D[dNMeA]G[Bip(4'-COOH)][Ala(pyrimidin-5-yl)][Dap][dA][hTyr]) (SMILES C[C@@H]1C(=O)NCC(=O)N[C@@H](Cc2ccc(-c3ccc(C(=O)O)cc3)cc2)C(=O)N[C@@H](Cc2cncnc2)C(=O)N[C@@H](CN)C(=O)N[C@H](C)C(=O)N[C@@H](CCc2ccc(O)cc2)C(=O)N[C@@H](Cc2ccc(-c3ccc(C(=O)O)cc3)cc2)C(=O)N[C@@H](Cc2c[nH]c3ccccc23)C(=O)N[C@@H](Cc2ccc(C(=O)O)cc2)C(=O)NCC(=O)N2C[C@H](N)C[C@H]2C(=O)N[C@@H]([C@@H](C)c2cccc3ccccc23)C(=O)N[C@@H](CC(=O)O)C(=O)N1C) [SEQ ID NO: 28]
6,0.0205,cyclo([Bip(4'-COOH)]W[Phe(4-COOH)]G[Pro(trans-4-NH2)][1Nal(3S-Me)]D[dNMeA]G[Bip(4'-COOH)][Trp(7-aza)][Dap][dA][hTyr]) (SMILES C[C@@H]1C(=O)NCC(=O)N[C@@H](Cc2ccc(-c3ccc(C(=O)O)cc3)cc2)C(=O)N[C@@H](Cc2c[nH]c3ncccc23)C(=O)N[C@@H](CN)C(=O)N[C@H](C)C(=O)N[C@@H](CCc2ccc(O)cc2)C(=O)N[C@@H](Cc2ccc(-c3ccc(C(=O)O)cc3)cc2)C(=O)N[C@@H](Cc2c[nH]c3ccccc23)C(=O)N[C@@H](Cc2ccc(C(=O)O)cc2)C(=O)NCC(=O)N2C[C@H](N)C[C@H]2C(=O)N[C@@H]([C@@H](C)c2cccc3ccccc23)C(=O)N[C@@H](CC(=O)O)C(=O)N1C) [SEQ ID NO: 29]
7,0.0599,cyclo([3AzaPhe4AcPip]W[Phe(4-COOH)]G[Pro(trans-4-NH2)][1Nal(3S-Me)]D[dNMeA]G[Bip(4'-COOH)]KL[dA][hTyr]) (SMILES CC(=O)N1CCN(c2ccc(C[C@@H]3NC(=O)[C@H](CCc4ccc(O)cc4)NC(=O)[C@@H](C)NC(=O)[C@H](CC(C)C)NC(=O)[C@H](CCCCN)NC(=O)[C@H](Cc4ccc(-c5ccc(C(=O)O)cc5)cc4)NC(=O)CNC(=O)[C@@H](C)N(C)C(=O)[C@H](CC(=O)O)NC(=O)[C@H]([C@@H](C)c4cccc5ccccc45)NC(=O)[C@@H]4C[C@@H](N)CN4C(=O)CNC(=O)[C@H](Cc4ccc(C(=O)O)cc4)NC(=O)[C@H](Cc4c[nH]c5ccccc45)NC3=O)cn2)CC1) [SEQ ID NO: 3]
8,0.0208,cyclo([Bip(4'-COOH)]W[Phe(4-COOH)]G[Pro(trans-4-NH2)][1Nal(3S-Me)]D[dNMeA]G[Bip(4'-COOH)]W[Dap][dA][hTyr]) (SMILES C[C@@H]1C(=O)NCC(=O)N[C@@H](Cc2ccc(-c3ccc(C(=O)O)cc3)cc2)C(=O)N[C@@H](Cc2c[nH]c3ccccc23)C(=O)N[C@@H](CN)C(=O)N[C@H](C)C(=O)N[C@@H](CCc2ccc(O)cc2)C(=O)N[C@@H](Cc2ccc(-c3ccc(C(=O)O)cc3)cc2)C(=O)N[C@@H](Cc2c[nH]c3ccccc23)C(=O)N[C@@H](Cc2ccc(C(=O)O)cc2)C(=O)NCC(=O)N2C[C@H](N)C[C@H]2C(=O)N[C@@H]([C@@H](C)c2cccc3ccccc23)C(=O)N[C@@H](CC(=O)O)C(=O)N1C) [SEQ ID NO: 31]
9,0.033,cyclo([Bip(4'-COOH)]W[Phe(4-COOH)]G[Pro(trans-4-NH2)][1Nal(3S-Me)]D[dNMeA]G[Bip(4'-COOH)]WG[dDab][hTyr]) (SMILES C[C@@H]1C(=O)NCC(=O)N[C@@H](Cc2ccc(-c3ccc(C(=O)O)cc3)cc2)C(=O)N[C@@H](Cc2c[nH]c3ccccc23)C(=O)NCC(=O)N[C@H](CCN)C(=O)N[C@@H](CCc2ccc(O)cc2)C(=O)N[C@@H](Cc2ccc(-c3ccc(C(=O)O)cc3)cc2)C(=O)N[C@@H](Cc2c[nH]c3ccccc23)C(=O)N[C@@H](Cc2ccc(C(=O)O)cc2)C(=O)NCC(=O)N2C[C@H](N)C[C@H]2C(=O)N[C@@H]([C@@H](C)c2cccc3ccccc23)C(=O)N[C@@H](CC(=O)O)C(=O)N1C) [SEQ ID NO: 32]
